Data published in patent publication US20080118509A1 (CEPHALON AUSTRALIA, published 2008).

Target: T1, CEA (180 KDa glycoprotein purified from colorectal tumour liver metastases by affinity chromatography with … (UniProt P06731 35-685))
T1 construct: Native glycoprotein dried onto microtitre plates; also called purified CEA
T1 sequence (looked up): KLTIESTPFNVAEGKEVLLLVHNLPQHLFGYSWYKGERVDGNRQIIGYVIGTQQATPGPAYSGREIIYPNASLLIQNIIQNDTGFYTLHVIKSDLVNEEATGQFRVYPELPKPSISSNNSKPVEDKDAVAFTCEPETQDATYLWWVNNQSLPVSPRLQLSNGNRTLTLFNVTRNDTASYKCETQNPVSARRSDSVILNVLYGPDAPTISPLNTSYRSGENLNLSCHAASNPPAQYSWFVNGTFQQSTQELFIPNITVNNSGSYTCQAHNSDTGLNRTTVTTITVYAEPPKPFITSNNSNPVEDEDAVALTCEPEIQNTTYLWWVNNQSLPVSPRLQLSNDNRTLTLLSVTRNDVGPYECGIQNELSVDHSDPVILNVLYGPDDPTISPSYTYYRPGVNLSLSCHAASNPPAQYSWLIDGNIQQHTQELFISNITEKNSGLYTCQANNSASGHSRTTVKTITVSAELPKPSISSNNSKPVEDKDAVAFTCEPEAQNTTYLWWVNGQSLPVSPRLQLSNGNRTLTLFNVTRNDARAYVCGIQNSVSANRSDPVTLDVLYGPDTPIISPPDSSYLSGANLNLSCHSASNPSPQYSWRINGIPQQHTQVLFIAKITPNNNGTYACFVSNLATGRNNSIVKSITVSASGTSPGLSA
Assay: ELISA, antigen dried onto microtitre plates (FIG. 4)
Experimental: (§1) The C14 antigen (90 KDa glycoprotein purified from saliva by affinity chromatography on C14 monoclonal), CEA (180 KDa glycoprotein purified from colorectal tumour live metastases by affinity chromatography with 365 mab) and glycolipid extract (glycolipid extracted in 3:1 methanol chloroform w/v from colorectal tumours) were dried onto microtitre plates by overnight incubation at 37° C. Binding of SC104 mab was assayed by ELISA and results expressed as absorbance 405 nm. SC101 and anti-CEA antibodies are included as positive controls.
as §1, with “Binding to purified antigen preparations. The” for “The”, “ELISA” for “ELISA and results expressed”, “described above.” for “absorbance 405 nm. SC101 and anti-CEA antibodies are included as positive controls.”

binding result: no binding
B1: SC104 monoclonal antibody (antibody, V domains shown)
VH: DVQLQESGPDLVKPSQSLSLTCTVTGYSITSGYSWHWVRQFPGNKMEWMGHIHFSGRPTYNPSLSSRISITRDTSKNQFLLQLKFVTTEDTSTYFCARKGKGSDDGLNYWGQGISVTVSS
VL: ENVLTQSPVIMSASPGEKVTMTCSASSSLSYIHWYQQKSRTSPKLWIYDTSNLASGVPGRFSGSGSGNSYSLTISSMEAEDVATYYCFQGSEYPLTFGGGTKLEMT
notes: Mouse IgG1 mab with kappa light chain, from hybridoma SC104/1E9; also called SC104 mab; SC104 antibody
